# Source: paper PMC2957522 (Journal of molecular biology, 2010)
# B1: TgPRF β-hairpin deletion mutant (ΔBH) (natural protein)
# chain: MSDWDPVVKEWLVDTGYCCAGGIANAEDGVVFAAAADDDDGWSKLYKDDNEASTIKAAVDDGSAPNGVWIGGQKYKVVRPEKGFEYNDCTFDITMCARSKGGAHLIKTPNGSIVIALYDEEKEQDKGNSRTSALAFAEYLHQSGY
# B2: Toxoplasma gondii profilin (TgPRF) (natural protein)
# chain: MSDWDPVVKEWLVDTGYCCAGGIANAEDGVVFAAAADDDDGWSKLYKDDHEEDTIGEDGNACGKVSINEASTIKAAVDDGSAPNGVWIGGQKYKVVRPEKGFEYNDCTFDITMCARSKGGAHLIKTPNGSIVIALYDEEKEQDKGNSRTSALAFAEYLHQSGY
# modifications: selenomethionine-substituted (level of selenium substitution essentially 100%)
# Molecular target: rabbit skeletal muscle actin (monomeric, Mg-εATP-actin) (rabbit, UniProt P68135 1-377)
# Experiment: actin nucleotide exchange kinetics
row,Binder,Kd [µM]
1,B1,> 150
2,B2,13.9 ± 5
